Target: T1, human 2-oxoglutarate dehydrogenase (hE1o) (human, UniProt Q02218 41-1023)
T1 sequence (looked up): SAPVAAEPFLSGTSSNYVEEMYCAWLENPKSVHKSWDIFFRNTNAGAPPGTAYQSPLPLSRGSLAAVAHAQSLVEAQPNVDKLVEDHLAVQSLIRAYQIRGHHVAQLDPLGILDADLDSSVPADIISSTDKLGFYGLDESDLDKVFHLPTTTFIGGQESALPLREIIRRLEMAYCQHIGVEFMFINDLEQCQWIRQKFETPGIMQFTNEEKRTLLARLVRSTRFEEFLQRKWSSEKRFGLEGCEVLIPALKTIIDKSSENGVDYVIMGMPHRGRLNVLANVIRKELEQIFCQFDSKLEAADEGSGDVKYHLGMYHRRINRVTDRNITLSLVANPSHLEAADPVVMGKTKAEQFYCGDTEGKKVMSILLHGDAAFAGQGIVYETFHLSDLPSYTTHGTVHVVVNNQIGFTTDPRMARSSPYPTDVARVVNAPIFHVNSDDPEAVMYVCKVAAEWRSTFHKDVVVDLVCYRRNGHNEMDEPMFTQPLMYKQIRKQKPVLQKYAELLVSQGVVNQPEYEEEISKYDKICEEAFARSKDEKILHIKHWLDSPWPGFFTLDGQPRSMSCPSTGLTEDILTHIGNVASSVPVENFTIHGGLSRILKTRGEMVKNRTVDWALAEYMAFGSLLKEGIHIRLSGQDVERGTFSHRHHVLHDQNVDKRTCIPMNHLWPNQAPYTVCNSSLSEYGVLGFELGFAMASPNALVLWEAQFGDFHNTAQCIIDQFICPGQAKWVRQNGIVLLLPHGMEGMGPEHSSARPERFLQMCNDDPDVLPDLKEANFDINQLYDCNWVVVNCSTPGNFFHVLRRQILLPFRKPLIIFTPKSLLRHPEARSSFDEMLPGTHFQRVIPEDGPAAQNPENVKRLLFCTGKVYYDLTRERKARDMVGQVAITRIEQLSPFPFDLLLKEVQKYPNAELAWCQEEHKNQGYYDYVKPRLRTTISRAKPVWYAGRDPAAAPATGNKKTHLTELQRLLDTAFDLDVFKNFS
Experiment: cross-linking

B1: human dihydrolipoyl succinyltransferase (hE2o) (enzyme, UniProt P36957 68-453, looked up)
chain: DDLVTVKTPAFAESVTEGDVRWEKAVGDTVAEDEVVCEIETDKTSVQVPSPANGVIEALLVPDGGKVEGGTPLFTLRKTGAAPAKAKPAEAPAAAAPKAEPTAAAVPPPAAPIPTQMPPVPSPSQPPSGKPVSAVKPTVAPPLAEPGAGKGLRSEHREKMNRMRQRIAQRLKEAQNTCAMLTTFNEIDMSNIQEMRARHKEAFLKKHNLKLGFMSAFVKASAFALQEQPVVNAVIDDTTKEVVYRDYIDISVAVATPRGLVVPVIRNVEAMNFADIERTITELGEKARKNELAIEDMDGGTFTISNGGVFGSLFGTPIINPPQSAILGMHGIFDRPVAIGGKVEVRPMMYVALTYDHRLIDGREAVTFLRKIKAAVEDPRVLLLDL
  binding result: binds
